B1: Gigaxonin (Homo sapiens), Q9H2C0 (parent)
chain: MAEGSAVSDPQHAARLLRALSSFREESRFCDAHLVLDGEEIPVQKNILAAASPYIRTKLNYNPPKDDGSTYKIELEGISVMVMREILDYIFSGQIRLNEDTIQDVVQAADLLLLTDLKTLCCEFLEGCIAAENCIGIRDFALHYCLHHVHYLATEYLETHFRDVSSTEEFLELSPQKLKEVISLEKLNVGNERYVFEAVIRWIAHDTEIRKVHMKDVMSALWVSGLDSSYLREQMLNEPLVREIVKECSNIPLSQPQQGEAMLANFKPRGYSECIVTVGGEERVSRKPTAAMRCMCPLYDPNRQLWIELAPLSMPRINHGVLSAEGFLFVFGGQDENKQTLSSGEKYDPDANTWTALPPMNEARHNFGIVEIDGMLYILGGEDGEKELISMECYDIYSKTWTKQPDLTMVRKIGCYAAMKKKIYAMGGGSYGKLFESVECYDPRTQQWTAICPLKERRFGAVACGVAMELYVFGGVRSREDAQGSEMVTCKSEFYHDEFKRWIYLNDQNLCIPASSSFVYGAVPIGASIYVIGDLDTGTNYDYVREFKRSTGTWHHTKPLLPSDLRRTGCAALRIANCKLFRLQLQQGLFRIRVHSP

Variants of: B1
Conditions: with tbcb_human TBCB

Row | Variant | effect of a mutation on the interaction
1 | R545C | disrupting interaction

From IntAct's records for PubMed 16303566
